Test results reported in article PMC9249326, “Analgesic effects of nerve growth factor‐directed monoclonal antibody on diabetic neuralgia in an animal model” (FEBS Open Bio, 2022).

How the values were obtained:
[1] = target: T1, 6xHis-tagged human NGF (nerve growth factor) (Homo sapiens, UniProt P01138); test: ELISA; NGF-6xHis (2 ug/mL) coated at 4 °C overnight; antibodies in threefold series from 100 nM, 1 h; detected with HRP goat anti-human IgG (H + L), TMB, OD450; details: both partners purified
T1 construct: nerve growth factor (NGF), human; also called NGF-6xHis; human NGF-6xHis; source: HEK293, transient transfection (pCAT1.0 vector)

NGF-6xHis-biotin = target: T2, NGF-6xHis-biotin (human, UniProt P01138, biotin); test: ELISA; blocking ELISA: TrkA-Fc (2 ug/mL) coated at 4 °C overnight; threefold dilutions of antibody 1 h at room temperature, then NGF-6xHis-biotin (0.5 ug/mL) 30 min; HRP-streptavidin, TMB; details: both partners purified
T2 construct: nerve growth factor (NGF), human; source: HEK293, transient transfection (pCAT1.0 vector)
T2 sequence (P01138 122-241): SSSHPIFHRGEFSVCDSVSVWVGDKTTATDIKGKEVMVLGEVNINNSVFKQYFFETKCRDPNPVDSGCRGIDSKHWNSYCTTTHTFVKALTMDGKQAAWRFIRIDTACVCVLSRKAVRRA

T1 sequence (P01138 19-241): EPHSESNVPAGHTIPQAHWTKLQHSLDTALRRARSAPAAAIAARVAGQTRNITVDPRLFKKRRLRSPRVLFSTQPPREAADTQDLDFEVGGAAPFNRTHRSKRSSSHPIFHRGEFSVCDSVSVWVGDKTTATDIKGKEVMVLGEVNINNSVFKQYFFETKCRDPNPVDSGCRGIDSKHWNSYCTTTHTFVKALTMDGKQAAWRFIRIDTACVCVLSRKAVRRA

B1: tanezumab (antibody, V domains shown)
VH: QVQLQESGPGLVKPSETLSLTCTVSGFSLIGYDLNWIRQPPGKGLEWIGIIWGDGTTDYNSAVKSRVTISKDTSKNQFSLKLSSVTAADTAVYYCARGGYWYATSYYFDYWGQGTLVTVSS
VL: DIQMTQSPSSLSASVGDRVTITCRASQSISNNLNWYQQKPGKAPKLLIYYTSRFHSGVPSRFSGSGSGTDFTFTISSLQPEDIATYYCQQEHTLPYTFGQGTKLEIK
notes: Whole antibody, held on Protein A sensors
[1]
  EC50: 9.34 pM
NGF-6xHis-biotin
  IC50: 1.67 nM
